From paper PMC7746637 (Nature chemical biology, 2020)
Like-named read-outs stand apart in the source and are kept apart here.

Tests used:
Assay in all cases: native MS
[1] = target: K2P4.1a (TRAAK, shorter isoform, truncated, residues 1-264), tags removed (human)
[2] = target: the molecule itself
[3] = target: the molecule itself; remark: listed apart in the source

“K2P4.1a (TRAAK, shorter isoform, truncated, residues 1-264), tags removed (domain or fragment)” showed a stoichiometry N [1] of 2.

B1: K2P4.1b (residues 1-290) as a C-terminal fusion to mCherry, Strep-tag II and His6 (pPIC-K2P4.1b-mC-S-H) (domain or fragment, human, UniProt Q9NYG8-2 1-290, looked up)
chain: MTTAPQEPPARPLQAGSGAGPAPGRAMRSTTLLALLALVLLYLVSGALVFRALEQPHEQQAQRELGEVREKFLRAHPCVSDQELGLLIKEVADALGGGADPETQSTSQSSHSAWDLGSAFFFSGTIITTIGYGNVALRTDAGRLFCIFYALVGIPLFGILLAGVGDRLGSSLRHGIGHIEAIFLKWHVPPELVRVLSAMLFLLIGCLLFVLTPTFVFCYMEDWSKLEAIYFVIVTLTTVGFGDYVAGADPRQDSPAYQPLVWFWILLGLAYFASVLTTIGNWLRVVSRRT
With B1 the “stoichiometry N” value [2] was 2.

B2: K2P4.1b (TRAAK, longer isoform, truncated, residues 1-290), expressed with tags at both termini, tags removed (domain or fragment, human, UniProt Q9NYG8-2 1-290, looked up)
chain: MTTAPQEPPARPLQAGSGAGPAPGRAMRSTTLLALLALVLLYLVSGALVFRALEQPHEQQAQRELGEVREKFLRAHPCVSDQELGLLIKEVADALGGGADPETQSTSQSSHSAWDLGSAFFFSGTIITTIGYGNVALRTDAGRLFCIFYALVGIPLFGILLAGVGDRLGSSLRHGIGHIEAIFLKWHVPPELVRVLSAMLFLLIGCLLFVLTPTFVFCYMEDWSKLEAIYFVIVTLTTVGFGDYVAGADPRQDSPAYQPLVWFWILLGLAYFASVLTTIGNWLRVVSRRT
B2 was tested, and the “stoichiometry N” value [3] was 2.
